Data: patent publication US20160297889A1 (TORAY INDUSTRIES, published 2016)
Positions count from the first letter of the chain named.

B1: humanized antibody #5 (antibody, V domains shown)
VH: EVQLVESGGGLVQPGGSLRLSCAASGFSLSSHSLGWVRQAPGKGLEWIGDIRSGGSAYYANWAKGRFTISRDNSKNTLYLQMNSLRAEDTAVYFCTRTNGPSDLTNRLDLWGQGTLVTVSS
VL: EQVLTQSPSSLSASVGDRVTINCQASQSLYNNENLAWFQQKPGKVPKRLIYGASTLASGVSSRFSGSGSGTEFTLTISNLQPEDFAIYYCLGEFSCGSADCFAFGGGTKVEIK
B2: humanized antibody #9 (antibody, V domains shown)
VH: B1 VH with V2Q, Q3S, F94Y
VL: B1 VL with E1D, Q2I, N79S, P82C
B3: humanized antibody #8 (antibody, V domains shown)
VH: QSLVESGGGLVQPGGSLRLSCAASGFSLSSHSLGWVRQAPGKGLEWIGDIRSGGSAYYANWAKGRFTISRTSSKNTVYLQMNSLRAEDTAVYFCTRTNGPSDLTNRLDLWGQGTLVTVSS
VL: QVLTQSPSSLSASVGDRVTINCQASQSLYNNENLAWFQQKPGKVPKRLIYGASTLASGVSSRFSGSGSGTEFTLTISSLQCEDFAIYYCLGEFSCGSADCFAFGGGTKVEIK
B4: human-rabbit chimeric anti-CAPRIN-1 antibody (antibody, V domains shown)
VH: QSLEESGGRLVTPGTPLTLTCTASGFSLSSHSLGWVRQAPGKGLEWIGDIRSGGSAYYANWAKGRFTISRTSTTVALKMTSLTTEDTATYFCTRTNGPSDLTNRLDLWGQGTLVTVSS
VL: QVLTQTPSSVSAAVGGTVTINCQASQSLYNNENLAWFQQKPGQPPKRLIYGASTLASGVSSRFKGSGSGTQFTLTIGDVQCDDAAIYYCLGEFSCGSADCFAFGGGTEVVVK

These binders were tested against T1, CAPRIN-1 protein expressed on the membrane surface of human cancer cells (human, UniProt Q14444 2-709) (assay: cell-based or functional assay).
T1 sequence (looked up): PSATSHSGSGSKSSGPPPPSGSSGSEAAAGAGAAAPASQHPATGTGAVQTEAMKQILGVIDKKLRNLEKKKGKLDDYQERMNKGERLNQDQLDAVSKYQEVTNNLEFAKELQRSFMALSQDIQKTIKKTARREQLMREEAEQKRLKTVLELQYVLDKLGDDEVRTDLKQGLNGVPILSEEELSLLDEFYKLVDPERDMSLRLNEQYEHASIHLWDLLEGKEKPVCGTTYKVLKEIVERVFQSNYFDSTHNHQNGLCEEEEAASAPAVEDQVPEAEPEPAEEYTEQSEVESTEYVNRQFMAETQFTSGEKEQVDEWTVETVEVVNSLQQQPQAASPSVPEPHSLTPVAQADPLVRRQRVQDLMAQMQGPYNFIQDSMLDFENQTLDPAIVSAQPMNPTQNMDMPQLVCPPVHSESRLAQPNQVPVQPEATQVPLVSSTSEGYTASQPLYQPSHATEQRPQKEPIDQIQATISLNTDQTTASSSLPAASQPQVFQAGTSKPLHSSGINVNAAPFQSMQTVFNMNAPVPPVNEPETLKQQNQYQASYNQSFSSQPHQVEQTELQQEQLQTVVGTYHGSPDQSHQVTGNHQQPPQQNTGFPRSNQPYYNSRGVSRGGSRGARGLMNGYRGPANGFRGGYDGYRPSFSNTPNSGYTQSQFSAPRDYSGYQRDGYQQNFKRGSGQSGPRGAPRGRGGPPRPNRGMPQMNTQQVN

B1 and B2 cannot be ordered by “ADCC cytotoxic activity (51Cr release) on 22Rv1” value: no less than 45% for the first, no less than 38% for the second.

B3 and B4 cannot be ordered by “ADCC cytotoxic activity (51Cr release) on 22Rv1” value: no less than 38% for the first, no less than 38% for the second.

B1 and B2 cannot be ordered by “ADCC cytotoxic activity (51Cr release) on A-673” value: no less than 46% for the first, no less than 40% for the second.

B3 and B4 cannot be ordered by “ADCC cytotoxic activity (51Cr release) on A-673” value: no less than 40% for the first, no less than 40% for the second.

B1 and B2 cannot be ordered by “ADCC cytotoxic activity (51Cr release) on BT-474” value: no less than 50% for the first, no less than 46% for the second.

B3 and B4 cannot be ordered by “ADCC cytotoxic activity (51Cr release) on BT-474” value: no less than 46% for the first, no less than 46% for the second.

B1 and B2 cannot be ordered by “ADCC cytotoxic activity (51Cr release) on Caki-2” value: no less than 33% for the first, no less than 26% for the second.

B3 and B4 cannot be ordered by “ADCC cytotoxic activity (51Cr release) on Caki-2” value: no less than 26% for the first, no less than 26% for the second.

B1 and B2 cannot be ordered by “ADCC cytotoxic activity (51Cr release) on FaDu” value: no less than 40% for the first, no less than 35% for the second.

B3 and B4 cannot be ordered by “ADCC cytotoxic activity (51Cr release) on FaDu” value: no less than 35% for the first, no less than 35% for the second.

B1 and B2 cannot be ordered by “ADCC cytotoxic activity (51Cr release) on G-361” value: no less than 21% for the first, no less than 15% for the second.

B3 and B4 cannot be ordered by “ADCC cytotoxic activity (51Cr release) on G-361” value: no less than 15% for the first, no less than 15% for the second.

B1 and B2 cannot be ordered by “ADCC cytotoxic activity (51Cr release) on HEC-1-A” value: no less than 45% for the first, no less than 40% for the second.

B3 and B4 cannot be ordered by “ADCC cytotoxic activity (51Cr release) on HEC-1-A” value: no less than 40% for the first, no less than 40% for the second.

B1 and B2 cannot be ordered by “ADCC cytotoxic activity (51Cr release) on HT-29” value: no less than 40% for the first, no less than 35% for the second.

B3 and B4 cannot be ordered by “ADCC cytotoxic activity (51Cr release) on HT-29” value: no less than 35% for the first, no less than 35% for the second.

B1 and B2 cannot be ordered by “ADCC cytotoxic activity (51Cr release) on HT-1080” value: no less than 25% for the first, no less than 20% for the second.

B3 and B4 cannot be ordered by “ADCC cytotoxic activity (51Cr release) on HT-1080” value: no less than 20% for the first, no less than 20% for the second.

B1 and B2 cannot be ordered by “ADCC cytotoxic activity (51Cr release) on HT-1376” value: no less than 40% for the first, no less than 28% for the second.

B3 and B4 cannot be ordered by “ADCC cytotoxic activity (51Cr release) on HT-1376” value: no less than 28% for the first, no less than 28% for the second.

B1 and B2 cannot be ordered by “ADCC cytotoxic activity (51Cr release) on Hep3B” value: no less than 25% for the first, no less than 21% for the second.

B3 and B4 cannot be ordered by “ADCC cytotoxic activity (51Cr release) on Hep3B” value: no less than 21% for the first, no less than 21% for the second.

B1 and B2 cannot be ordered by “ADCC cytotoxic activity (51Cr release) on IM-9” value: no less than 30% for the first, no less than 27% for the second.

B3 and B4 cannot be ordered by “ADCC cytotoxic activity (51Cr release) on IM-9” value: no less than 27% for the first, no less than 27% for the second.

B1 and B2 cannot be ordered by “ADCC cytotoxic activity (51Cr release) on MDA-MB-361” value: no less than 45% for the first, no less than 40% for the second.

B3 and B4 cannot be ordered by “ADCC cytotoxic activity (51Cr release) on MDA-MB-361” value: no less than 40% for the first, no less than 40% for the second.

B1 and B2 cannot be ordered by “ADCC cytotoxic activity (51Cr release) on NCI-H2452” value: no less than 39% for the first, no less than 31% for the second.

B3 and B4 cannot be ordered by “ADCC cytotoxic activity (51Cr release) on NCI-H2452” value: no less than 31% for the first, no less than 31% for the second.

B1 and B2 cannot be ordered by “ADCC cytotoxic activity (51Cr release) on NCI-N87” value: no less than 38% for the first, no less than 34% for the second.

B3 and B4 cannot be ordered by “ADCC cytotoxic activity (51Cr release) on NCI-N87” value: no less than 34% for the first, no less than 34% for the second.

B1 and B2 cannot be ordered by “ADCC cytotoxic activity (51Cr release) on NT/D1” value: no less than 30% for the first, no less than 25% for the second.

B3 and B4 cannot be ordered by “ADCC cytotoxic activity (51Cr release) on NT/D1” value: no less than 25% for the first, no less than 25% for the second.

B1 and B2 cannot be ordered by “ADCC cytotoxic activity (51Cr release) on OCI-AML5” value: no less than 18% for the first, no less than 15% for the second.

B3 and B4 cannot be ordered by “ADCC cytotoxic activity (51Cr release) on OCI-AML5” value: no less than 15% for the first, no less than 15% for the second.

B1 and B2 cannot be ordered by “ADCC cytotoxic activity (51Cr release) on OE33” value: no less than 33% for the first, no less than 30% for the second.

B3 and B4 cannot be ordered by “ADCC cytotoxic activity (51Cr release) on OE33” value: no less than 30% for the first, no less than 30% for the second.

B1 and B2 cannot be ordered by “ADCC cytotoxic activity (51Cr release) on Panc10.5” value: no less than 30% for the first, no less than 24% for the second.

B3 and B4 cannot be ordered by “ADCC cytotoxic activity (51Cr release) on Panc10.5” value: no less than 24% for the first, no less than 24% for the second.

B1 and B2 cannot be ordered by “ADCC cytotoxic activity (51Cr release) on QG56” value: no less than 42% for the first, no less than 38% for the second.

B3 and B4 cannot be ordered by “ADCC cytotoxic activity (51Cr release) on QG56” value: no less than 38% for the first, no less than 38% for the second.

B1 and B2 cannot be ordered by “ADCC cytotoxic activity (51Cr release) on RD-ES” value: no less than 40% for the first, no less than 31% for the second.

B3 and B4 cannot be ordered by “ADCC cytotoxic activity (51Cr release) on RD-ES” value: no less than 31% for the first, no less than 31% for the second.

B1 and B2 cannot be ordered by “ADCC cytotoxic activity (51Cr release) on RPM11666” value: no less than 36% for the first, no less than 30% for the second.

B3 and B4 cannot be ordered by “ADCC cytotoxic activity (51Cr release) on RPM11666” value: no less than 30% for the first, no less than 30% for the second.

B1 and B2 cannot be ordered by “ADCC cytotoxic activity (51Cr release) on Ramos” value: no less than 18% for the first, no less than 15% for the second.

B3 and B4 cannot be ordered by “ADCC cytotoxic activity (51Cr release) on Ramos” value: no less than 15% for the first, no less than 15% for the second.

B1 and B2 cannot be ordered by “ADCC cytotoxic activity (51Cr release) on SKOV3” value: no less than 31% for the first, no less than 27% for the second.

B3 and B4 cannot be ordered by “ADCC cytotoxic activity (51Cr release) on SKOV3” value: no less than 27% for the first, no less than 27% for the second.

B1 and B2 cannot be ordered by “ADCC cytotoxic activity (51Cr release) on T24” value: no less than 33% for the first, no less than 30% for the second.

B3 and B4 cannot be ordered by “ADCC cytotoxic activity (51Cr release) on T24” value: no less than 30% for the first, no less than 30% for the second.

B1 and B2 cannot be ordered by “ADCC cytotoxic activity (51Cr release) on TGBC14TKB” value: no less than 30% for the first, no less than 25% for the second.

B3 and B4 cannot be ordered by “ADCC cytotoxic activity (51Cr release) on TGBC14TKB” value: no less than 25% for the first, no less than 25% for the second.

B1 and B2 cannot be ordered by “ADCC cytotoxic activity (51Cr release) on TT” value: no less than 35% for the first, no less than 30% for the second.

B3 and B4 cannot be ordered by “ADCC cytotoxic activity (51Cr release) on TT” value: no less than 30% for the first, no less than 30% for the second.

B1 and B2 cannot be ordered by “ADCC cytotoxic activity (51Cr release) on U-87MG” value: no less than 29% for the first, no less than 24% for the second.

B3 and B4 cannot be ordered by “ADCC cytotoxic activity (51Cr release) on U-87MG” value: no less than 24% for the first, no less than 24% for the second.
